The source of these data is patent US20200262920A1 (AMPHIVENA THERAPEUTICS, published 2020).

Sequences and labels used below:
B1: CD33/CD3 2×2 T-cell engager 21 (bispecific antibody)
chain: DIQMTQSPSSLSASVGDRVTITCRSSTGAVTTSNYANWVQQKPGKAPKALIGGTNKRAPGVPSRFSGSLIGDKATLTISSLQPEDFATYYCALWYSNLWVFGQGTKVEIKGGSGGSQVQLVQSGAEVKKPGSSVKVSCKASGGTFSSYAISWVRQAPGQGLEWMGGIYPIFGSANYAQKFQGRVTITADESTSTAYMELSSLRSEDTAVYYCAREYYYDSSEWAFDIWGQGTLVTVSSGGSGQSVLTQPPSASGTPGQRVTISCSGSSSNIGSNIVNWYQQLPGTAPKLLIYSNNQRPSGVPDRFSGSKSGTSASLAISGLQSEDEADYYCAAWDDSLKGYVFGGGTKLTVLGGSGGSEVQLVESGGGLVQPGGSLRLSCAASGFTFSTYAMNWVRQAPGKGLEWVGRIRSKYNNYATYYADSVKDRFTISRDDSKNSLYLQMNSLKTEDTAVYYCARHGNFGNSYVSYFAYWGQGTLVTVSSAAAGSHHHHHH
notes: Non-covalent homodimer
B2: CD33/CD3 2×2 T-cell engager 22 (bispecific antibody)
chain: B1 chain with A149G, Y168I, N175H, I275T, N277K, P298S, T312S, K339N
notes: Non-covalent homodimer
B3: CD33/CD3 2×2 T-cell engager 17 (bispecific antibody)
chain: DIQMTQSPSSLSASVGDRVTITCRSSTGAVTTSNYANWVQQKPGKAPKALIGGTNKRAPGVPSRFSGSLIGDKATLTISSLQPEDFATYYCALWYSNLWVFGQGTKVEIKGGSGGSQVQLVQSGAEVKKPGESLKISCKGSGYSFTSYWIGWVRQMPGKGLEWMGIIYPGDSDTRYSPSFQGQVTISADKSISTAYLQWSSLKASDTAMYYCARHKRGSDAFDIWGQGTTVTVSSGGSGQSVLTQPPSVSGAPGQRVTISCTGSSSNIGAGYDVHWYQQLPGTAPKLLIYGNSNRPSGVPDRFSGSKSGTSASLAITGLQAEDEADYYCQSYDSSLSDVVFGGGTKLTVLGGSGGSEVQLVESGGGLVQPGGSLRLSCAASGFTFSTYAMNWVRQAPGKGLEWVGRIRSKYNNYATYYADSVKDRFTISRDDSKNSLYLQMNSLKTEDTAVYYCARHGNFGNSYVSYFAYWGQGTLVTVSSAAAGSHHHHHH
notes: Non-covalent homodimer
B4: CD33/CD3 2×2 T-cell engager 07 (bispecific antibody)
chain: DIQMTQSPSSLSASVGDRVTITCRSSTGAVTTSNYANWVQQKPGKAPKALIGGTNKRAPGVPSRFSGSLIGDKATLTISSLQPEDFATYYCALWYSNLWVFGQGTKVEIKGGSGGSQVQLQESGGGVVQPGRSLRLSCAASGFSFSNYGIHWVRQAPGKGLEWVALISYDGNKKFYADSVKGRFAISRDTSKNTVDLQMTSLRPEDTAVYYCAKDRLESAAFDYWGQGTLVTVSSGGSGGSSYELTQPPSVSVAPGQTAMITCGGNNIGSTTVHWYQQKPGQAPVLVVYDDNERPSGIPERFSGSNSGSTATLTINRVEAGDEADYYCQVWDSGSDHVVFGGGTKLTVLGGSGGSEVQLVESGGGLVQPGGSLRLSCAASGFTFSTYAMNWVRQAPGKGLEWVGRIRSKYNNYATYYADSVKDRFTISRDDSKNSLYLQMNSLKTEDTAVYYCARHGNFGNSYVSYFAYWGQGTLVTVSSAAAGSHHHHHH
notes: Non-covalent homodimer; also called 2×2 T-cell engager 7
B5: CD33/CD3 2×2 T-cell engager 23 (bispecific antibody)
chain: DIQMTQSPSSLSASVGDRVTITCRSSTGAVTTSNYANWVQQKPGKAPKGLIGGTNKRAPGVPSRFSGSLIGTDFTLTISSLQPEDFATYYCALWYSNLWVFGQGTKVEIKGGSGGSQVQLVQSGAEVKKPGSSVKVSCKASGGTFSSYGISWVRQAPGQGLEWMGGIIPIFGSAHYAQKFQGRVTITADESTSTAYMELSSLRSEDTAVYYCAREYYYDSSEWAFDIWGQGTLVTVSSGGSGQSVLTQPPSASGTPGQRVTISCSGSSSNIGSNTVKWYQQLPGTAPKLLIYSNNQRSSGVPDRFSGSKSGSSASLAISGLQSEDEADYYCAAWDDSLNGYVFGGGTKLTVLGGSGGSEVQLVESGGGLVQPGGSLRLSCAASGFTFSTYAMNWVRQAPGKGLEWVGRIRSKYNNYATYYADSVKDRFTISRDDSKNSLYLQMNSLKTEDTAVYYCARHGNFGNSYVSWFAYWGQGTLVTVSS
notes: Non-covalent homodimer

Where a chain is given by its changes, count along the chain named.

T1 sequence (P07766 23-207, chain 1 of 4): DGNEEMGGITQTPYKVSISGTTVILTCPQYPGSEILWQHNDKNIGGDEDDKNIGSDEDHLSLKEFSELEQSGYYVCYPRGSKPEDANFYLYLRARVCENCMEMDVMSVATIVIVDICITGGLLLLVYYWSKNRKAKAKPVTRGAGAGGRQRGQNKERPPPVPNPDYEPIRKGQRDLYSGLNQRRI
T1 sequence (P09693 23-182, chain 2 of 4): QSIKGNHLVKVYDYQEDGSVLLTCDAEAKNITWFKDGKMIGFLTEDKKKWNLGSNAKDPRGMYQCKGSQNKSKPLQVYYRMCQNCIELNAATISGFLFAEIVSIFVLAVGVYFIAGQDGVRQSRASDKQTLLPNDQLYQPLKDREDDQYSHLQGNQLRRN
T1 sequence (P04234 22-171, chain 3 of 4): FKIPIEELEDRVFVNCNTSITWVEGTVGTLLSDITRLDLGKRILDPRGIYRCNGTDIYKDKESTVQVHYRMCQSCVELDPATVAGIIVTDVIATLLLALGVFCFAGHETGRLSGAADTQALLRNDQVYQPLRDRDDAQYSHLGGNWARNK
T1 sequence (P20963 22-164, chain 4 of 4): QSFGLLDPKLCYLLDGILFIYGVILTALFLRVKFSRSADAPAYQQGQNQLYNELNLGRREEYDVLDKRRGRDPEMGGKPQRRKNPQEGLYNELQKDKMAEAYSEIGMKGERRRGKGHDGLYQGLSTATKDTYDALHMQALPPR

One test concerns the target T1, human CD3 (human, UniProt P07766 23-207; P09693 23-182; P04234 22-171; P20963 22-164).
T1 construct: whole, on cells; the description names the epsilon chain only 'in certain instances'; also called hu CD3; CD3 on T cells
Briefly: flow cytometry titration, T cells (human CD3+). In general terms: In flow cytometry, cells or beads pass a laser one at a time.
One may read the Kd as the equilibrium constant for the complex coming apart. Higher therefore signals a looser complex. B1 registered a Kd of 2.1 nM.

Regarding B2, the Kd turned out to be 4.1 nM.

As to B3, the Kd came out at 3.3 nM.

The molecule B4 had a Kd of 49.7 nM.

B5 showed a Kd of 97.2 nM.

The next test has as its target T1, human CD3. Briefly: cell-based or functional assay.
Consider B1, for which the “CD69 Induction EC50” value came out at 0.225 nM and the “T cell Proliferation in PBMC EC50” value is 0.5 nM.

On to B2, for which the “CD25 Induction EC50” value is 0.01 nM, the “CD69 Induction EC50” value worked out at 0.004 nM and the “T cell Proliferation in PBMC EC50” value is 0.007 nM.

With B3, the “CD25 Induction EC50” value amounted to 0.03 nM, the “CD69 Induction EC50” value turned out to be 0.114 nM and the “T cell Proliferation in PBMC EC50” value was determined as 0.03 nM.

As to B4, the “CD25 Induction EC50” value amounted to 0.134 nM, the “CD69 Induction EC50” value is 0.065 nM and the “T cell Proliferation in PBMC EC50” value turned out to be 0.05 nM.

Take B5: the “CD25 Induction EC50” value came to 0.041 nM, the “CD69 Induction EC50” value came to 0.017 nM and the “T cell Proliferation in PBMC EC50” value was found to be 0.037 nM.

In the next test the target is T1, human CD3. Briefly: flow cytometry, human T-cells.
The molecule B1 had a Kd of 2.1 nM.

As to B2, the Kd stood at 4.1 nM.

On to B3, for which the Kd is 3.3 nM.

Consider B4, for which binding was put at a Kd of 49.7 nM.

In turn, B5 displayed a Kd of 97.2 nM.

Another test deals with T2, human CD33 (human, UniProt P20138 18-364).
T2 construct: whole, on cells; also called huCD33; CD33 on HL-60, KG-1, KG-1a, U-937 cells
T2 sequence (P20138 18-364): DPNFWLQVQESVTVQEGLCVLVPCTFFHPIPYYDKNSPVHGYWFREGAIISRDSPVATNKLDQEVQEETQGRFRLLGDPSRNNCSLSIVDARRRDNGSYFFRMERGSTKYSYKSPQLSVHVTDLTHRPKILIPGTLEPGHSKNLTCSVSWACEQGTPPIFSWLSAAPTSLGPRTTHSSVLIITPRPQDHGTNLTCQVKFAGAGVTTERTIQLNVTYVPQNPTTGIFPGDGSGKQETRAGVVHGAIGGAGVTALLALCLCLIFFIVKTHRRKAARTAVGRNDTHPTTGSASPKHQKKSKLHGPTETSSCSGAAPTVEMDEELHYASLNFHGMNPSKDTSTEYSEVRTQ
Briefly: flow cytometry, HL-60 cells.
B1 registered a Kd of 9.7 nM.

On to B2, for which the Kd was 0.7 nM.

Molecule B3 yielded a Kd of 5 nM.

As to B4, the Kd came to 13.7 nM.

On to B5, for which the affinity, expressed as Kd, was 0.4 nM.

A further test concerns the target T3, cynomolgus CD33 (cynomolgus, UniProt A0A7N9ICR5 17-359).
T3 construct: whole, on cells; also called cynoCD33; cyno CD33
Kind of test: ratio of KD by flow cytometry on CHO cells expressing cynomolgus CD33 vs human CD33. The method, then: (§1) Cells were incubated with 100 μL of serial dilutions of CD33/CD3 2×2 T-cell engagers. After washing three times with FACS buffer the cells were incubated with 0.1 mL of 10 μg/mL mouse monoclonal anti-His antibody in the same buffer for 45 min on ice. After a second washing cycle, the cells were incubated with 0.1 mL of 15 μg/mL FITC-conjugated goat anti-mouse IgG antibodies under the same conditions as before. As a control, cells were incubated with the anti-His IgG followed by the FITC-conjugated goat anti-mouse IgG antibodies without anti-CD33 2×2 T-cell engagers. The cells were then washed again and resuspended in 0.2 mL of FACS buffer containing 2 μg/mL propidium iodide (PI) in order to exclude dead cells. The fluorescence of 1×10⁴ living cells was measured using a Beckman-Coulter FC500 MPL flow cytometer using the MXP software (Beckman-Coulter, Krefeld, Germany) or a Millipore Guava EasyCyte flow cytometer using the Incyte software (Merck Millipore, Schwalbach, Germany). Mean fluorescence intensities of the cell samples were calculated using CXP software (Beckman-Coulter, Krefeld, Germany) or Incyte software (Merck Millipore, Schwalbach, Germany). After subtracting the fluorescence intensity values of the cells stained with the secondary and tertiary reagents alone the values were used for calculation of the KD values with the equation for one-site binding (hyperbola) of the GraphPad Prism (version 6.00 for Windows, GraphPad Software, La Jolla Calif. USA).
CD3 binding affinity and crossreactivity were evaluated in titration and flow cytometric experiments on CD3⁺ Jurkat cells (provided by Dr. Moldenhauer, DKFZ Heidelberg; human acute T-cell leukemia) and the cynomolgus CD3⁺ HSC-F cell line (JCRB, cat.:JCRB 1164). […] The KD ratio of crossreactivity was calculated using the KD values determined on the CHO cell lines expressing either recombinant human or recombinant cynomolgus antigens.
As to B1, the “KD ratio cynoCD33/huCD33” value amounted to 0.9.

On to B2, for which the “KD ratio cynoCD33/huCD33” value stood at 0.6.

With B3, the “KD ratio cynoCD33/huCD33” value is 1.9.

In the case of B4, the “KD ratio cynoCD33/huCD33” value worked out at 45.8.

Take B5: the “KD ratio cynoCD33/huCD33” value was found to be 1.9.

The next test addresses T2, human CD33. Kind of test: flow cytometry titration, KG-1 cells. The protocol:
as §1, with “USA). […]” for “USA).”
The molecule B1 came in with a Kd of 25.1 nM.

Regarding B2, the Kd is 2 nM.

B3 returned a Kd of 52.5 nM.

B4 gave a Kd of 47.9 nM.

The molecule B5 displayed a Kd of 1 nM.

In a further test the target is T2, human CD33. Briefly: flow cytometry titration, U-937 cells. The method, then: as §1, with “USA). […]” for “USA).”
Molecule B1 registered a Kd of 80.2 nM.

For B2, the affinity, expressed as Kd, was 8.6 nM.

For B3, binding was characterised by a dissociation constant (Kd) of 24.4 nM.

Take B4: the affinity, expressed as Kd, was 47.1 nM.

For B5, the Kd stood at 5.1 nM.

The target of another test is T2, human CD33. Kind of test: flow cytometry titration, HL-60 cells. The method, then:
as §1, with “USA). […]” for “USA).”
B1: the Kd is 9.7 nM.

In turn, B2 returned a Kd of 0.7 nM.

Molecule B3 showed a Kd of 5 nM.

Turning to B4, the Kd was 13.7 nM.

In turn, B5 came in with a Kd of 0.4 nM.

The next test deals with T2, human CD33. Kind of test: cell-based or functional assay.
Regarding B1, the “EC50 on HL-60 (cytotoxicity)” value stood at 0.0076 nM.

On to B2, for which the “EC50 on HL-60 (cytotoxicity)” value amounted to 0.0032 nM.

For B3, the “EC50 on HL-60 (cytotoxicity)” value is 0.0184 nM.

For the molecule B4, the “EC50 on HL-60 (cytotoxicity)” value stood at 0.0178 nM.

In the case of B5, the “EC50 on HL-60 (cytotoxicity)” value worked out at 0.0028 nM.
